# B1: CEL-S100A12 prepared with 3 mM pyruvate (natural protein, UniProt P80511 1-92, looked up)
# chain: MTKLEEHLEGIVNIFHQYSVRKGHFDTLSKGELKQLLTKELANTIKNIKDKAVIDEIFQGLDANQDEQVDFQEFISLVAIALKAAHYHTHKE
# modifications: N-epsilon-carboxyethyllysine (CEL) on all lysine residues; carboxyethylated N-terminus; no arginine modifications (CEL rate equal to or higher than in all MGO-modified samples)
# notes: S100A12 as in m1, CEL-modified by reductive amination; Heterogeneous mixture; the extent of modification is not quantified; also called CEL-modified S100A12 (3 mM pyruvate); source: E. coli One Shot BL21 (DE3), purified; reductive amination with 3 mM pyruvate and NaBH3CN at 25 °C for 16 h, excess reagent removed by ultrafiltration
# B2: CEL-S100A12 prepared with 600 µM pyruvate (natural protein, UniProt P80511 1-92, looked up)
# chain: B1 chain
# modifications: N-epsilon-carboxyethyllysine (CEL) on all lysine residues; carboxyethylated N-terminus; no arginine modifications (partial, modification rate rises with pyruvate)
# notes: S100A12 as in m1, CEL-modified by reductive amination; Heterogeneous mixture; the extent of modification is not quantified; also called CEL-modified S100A12 (600 µM pyruvate); source: E. coli One Shot BL21 (DE3), purified; reductive amination with 600 µM pyruvate and NaBH3CN at 25 °C for 16 h, excess reagent removed by ultrafiltration
# B3: recombinant S100A12 (natural protein, UniProt P80511 1-92, looked up)
# chain: B1 chain
# notes: N-terminal methionine only partially removed (M1S100A12 predominant); Mixture of chains with and without M1; The controls incubated without reagent are written as this molecule; also called M1S100A12; unincubated negative control; source: E. coli One Shot BL21 (DE3), purified (chitin column, on-column intein cleavage with DTT, dialysis, NAP-5)
# B4: CEL-S100A12 prepared with 30 mM pyruvate (natural protein, UniProt P80511 1-92, looked up)
# chain: B1 chain
# modifications: N-epsilon-carboxyethyllysine (CEL) on all lysine residues; carboxyethylated N-terminus; no arginine modifications (highest modification rate)
# notes: S100A12 as in m1, CEL-modified by reductive amination; Heterogeneous mixture; the extent of modification is not quantified; also called CEL-modified S100A12 (30 mM pyruvate); CEL-S100A12 at the highest modification rate; source: E. coli One Shot BL21 (DE3), purified; reductive amination with 30 mM pyruvate and NaBH3CN at 25 °C for 16 h, excess reagent removed by ultrafiltration
# B5: S100A12 incubated with 40 µM MGO (natural protein, UniProt P80511 1-92, looked up)
# chain: B1 chain
# modifications: hydroimidazolone, MGO-hemiaminal/CEA, argpyrimidine and tetrahydropyrimidine at R21; CEL at K3, K30, K34, K39, K49, K83, K91; carboxyethylation of the N-terminus (partial)
# notes: S100A12 as in m1, chemically modified with methylglyoxal; Heterogeneous mixture of modified and unmodified chains; also called MGO-modified S100A12 (40 µM MGO); source: E. coli One Shot BL21 (DE3), purified; incubated with 40 µM methylglyoxal at 37 °C for 1, 3 or 7 days, excess reagent removed by ultrafiltration
# B6: S100A12 incubated with 4 µM MGO (natural protein, UniProt P80511 1-92, looked up)
# chain: B1 chain
# modifications: hydroimidazolone (+54 Da) and MGO-hemiaminal/CEA (+72 Da) at R21 (partial, low modification degree)
# notes: S100A12 as in m1, chemically modified with methylglyoxal; Heterogeneous mixture of modified and unmodified chains; also called MGO-modified S100A12 (4 µM MGO); source: E. coli One Shot BL21 (DE3), purified; incubated with 4 µM methylglyoxal at 37 °C for 1, 3 or 7 days, excess reagent removed by ultrafiltration
# B7: CEL-S100A12 prepared with 300 µM pyruvate (natural protein, UniProt P80511 1-92, looked up)
# chain: B1 chain
# modifications: N-epsilon-carboxyethyllysine (CEL) on all lysine residues; carboxyethylated N-terminus; no arginine modifications (partial, modification rate rises with pyruvate)
# notes: S100A12 as in m1, CEL-modified by reductive amination; Heterogeneous mixture; the extent of modification is not quantified; also called CEL-modified S100A12 (300 µM pyruvate); source: E. coli One Shot BL21 (DE3), purified; reductive amination with 300 µM pyruvate and NaBH3CN at 25 °C for 16 h, excess reagent removed by ultrafiltration
# B8: CEL-S100A12 prepared with 15 mM pyruvate (natural protein, UniProt P80511 1-92, looked up)
# chain: B1 chain
# modifications: N-epsilon-carboxyethyllysine (CEL) on all lysine residues; carboxyethylated N-terminus; no arginine modifications (partial, modification rate rises with pyruvate)
# notes: S100A12 as in m1, CEL-modified by reductive amination; Heterogeneous mixture; the extent of modification is not quantified; also called CEL-modified S100A12 (15 mM pyruvate); source: E. coli One Shot BL21 (DE3), purified; reductive amination with 15 mM pyruvate and NaBH3CN at 25 °C for 16 h, excess reagent removed by ultrafiltration
# B9: S100A12 incubated with 4 mM MGO (natural protein, UniProt P80511 1-92, looked up)
# chain: B1 chain
# modifications: hydroimidazolone, MGO-hemiaminal/CEA, argpyrimidine and tetrahydropyrimidine at R21; CEL at K3, K30, K34, K39, K46, K49, K51, K83, K91; carboxyethylation of the N-terminus; a +126 Da modification not assigned to a residue
# notes: S100A12 as in m1, chemically modified with methylglyoxal; no signal of the native protein left in MALDI-TOF-MS; By SEC only a small part was hexamer; also called MGO-modified S100A12 (4 mM MGO); MGO-S100A12; source: E. coli One Shot BL21 (DE3), purified; incubated with 4 mM methylglyoxal at 37 °C for 1, 3 or 7 days, excess reagent removed by ultrafiltration
# B10: S100A12 incubated with 400 µM MGO (natural protein, UniProt P80511 1-92, looked up)
# chain: B1 chain
# modifications: hydroimidazolone, MGO-hemiaminal/CEA, argpyrimidine and tetrahydropyrimidine at R21; CEL at K3, K30, K34, K39, K46, K49, K51, K83, K91; carboxyethylation of the N-terminus (partial)
# notes: S100A12 as in m1, chemically modified with methylglyoxal; Heterogeneous mixture; by SEC a minor part was not present as hexamer; also called MGO-modified S100A12 (400 µM MGO); source: E. coli One Shot BL21 (DE3), purified; incubated with 400 µM methylglyoxal at 37 °C for 1, 3 or 7 days, excess reagent removed by ultrafiltration
# Assays:
# [1] = target: the molecule itself; assay: SEC; data not shown; Superdex 75 10/300 GL, 10 mM Tris-HCl, 150 mM NaCl, 500 µM CaCl2, 10 µM ZnCl2, pH 7.4
# [2] = target: T1, recombinant human RAGE Fc chimera (human, UniProt Q15109 23-342); assay: SPR; Biacore X100, 25 °C, 30 µL/min; 7200 RU of RAGE Fc chimera amine-coupled to a CM5 chip; S100A12 samples injected (180 s association, 180 s dissociation); HBS-P (10 mM HEPES, 150 mM NaCl, 0.05% surfactant 20, pH 7.4) with 500 µM CaCl2 and 10 µM ZnCl2; reference cell subtracted; response given relative to the unincubated negative control; conditions: both partners purified
# T1 construct: receptor for advanced glycation end-products (RAGE), human; No catalogue number is printed; also called receptor for advanced glycation end-products; recombinant RAGE; source: bought: R&D Systems, from a mouse myeloma cell line
# [3] = target: the molecule itself; assay: SEC; Superdex 75 10/300 GL, 10 mM Tris-HCl, 150 mM NaCl, 500 µM CaCl2, 10 µM ZnCl2, pH 7.4, 0.6 mL/min; calibrated with bovine serum albumin, carbonic anhydrase, cytochrome C and aprotinin
# T1 sequence (Q15109 23-342, change not shown): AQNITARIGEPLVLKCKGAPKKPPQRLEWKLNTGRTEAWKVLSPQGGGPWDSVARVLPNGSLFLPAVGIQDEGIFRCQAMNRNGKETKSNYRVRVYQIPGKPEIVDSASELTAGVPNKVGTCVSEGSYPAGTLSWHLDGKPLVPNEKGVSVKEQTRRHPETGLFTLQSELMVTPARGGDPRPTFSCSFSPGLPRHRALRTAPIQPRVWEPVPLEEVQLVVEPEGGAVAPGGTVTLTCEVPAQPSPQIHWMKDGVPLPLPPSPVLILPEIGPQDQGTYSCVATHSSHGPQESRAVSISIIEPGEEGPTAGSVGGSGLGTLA
percent binding (of the control) [2] [%],Binder,stoichiometry N [1],stoichiometry N [3]
80.9,B1,6,–
–,B2,6,–
–,B3,–,6
34,B4,6,–
–,B5,6,–
–,B6,6,–
–,B7,6,–
–,B8,6,–
–,B9,–,6
–,B10,–,6

# Source: paper PMC4245128, “Influence of Nonenzymatic Posttranslational Modifications on Constitution, Oligomerization and Receptor Binding of S100A12” (PLoS ONE, 2014)
